In article PMC11249846 (Protein Science : A Publication of the Protein Society, 2024):

Target: Hsc70‐T204A (human, UniProt P11142 1-646, T204A)
Test: NMR titration

Chain of Hsc70‐T204A (P11142 whole entry T204A): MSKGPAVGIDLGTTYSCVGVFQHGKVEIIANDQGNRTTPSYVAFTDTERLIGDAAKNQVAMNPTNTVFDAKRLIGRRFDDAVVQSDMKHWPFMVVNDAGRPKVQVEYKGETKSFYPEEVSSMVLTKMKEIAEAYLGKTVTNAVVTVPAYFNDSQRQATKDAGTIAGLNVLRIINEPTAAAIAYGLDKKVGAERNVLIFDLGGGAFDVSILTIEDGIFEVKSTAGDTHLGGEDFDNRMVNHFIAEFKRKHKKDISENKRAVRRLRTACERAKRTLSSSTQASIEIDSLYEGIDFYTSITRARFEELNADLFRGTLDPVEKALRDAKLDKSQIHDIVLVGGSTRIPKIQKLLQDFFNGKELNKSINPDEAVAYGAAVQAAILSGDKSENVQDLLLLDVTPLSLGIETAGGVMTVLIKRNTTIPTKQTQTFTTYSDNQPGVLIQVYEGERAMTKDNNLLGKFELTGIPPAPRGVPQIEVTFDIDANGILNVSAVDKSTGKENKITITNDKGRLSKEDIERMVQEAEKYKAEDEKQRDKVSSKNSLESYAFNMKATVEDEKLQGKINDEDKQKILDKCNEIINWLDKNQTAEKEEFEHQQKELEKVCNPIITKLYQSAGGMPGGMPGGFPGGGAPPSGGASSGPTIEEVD

binding result: binds
B1: wt (JD‐G/FR) (domain or fragment)
chain: not shown
